Experiments:
[1] = target: glial cell line derived neurotrophic factor (GDNF), R&D Systems 212-GD-010 (UniProt P39905); experiment: c-PLA, buffer; GDNF 1.00E-14 M
[2] = target: glial cell line derived neurotrophic factor (GDNF), R&D Systems 212-GD-010 (UniProt P39905); experiment: SPR (Biacore T200), biotinylated antibody on CAP chip, 1:1 fit
[3] = target: glial cell line derived neurotrophic factor (GDNF), R&D Systems 212-GD-010 (UniProt P39905); experiment: c-PLA, buffer; GDNF 1.00E-12 M
[4] = target: glial cell line derived neurotrophic factor (GDNF), R&D Systems 212-GD-010 (UniProt P39905); experiment: t-PLA, buffer; GDNF 1.00E-10 M
[5] = target: glial cell line derived neurotrophic factor (GDNF), R&D Systems 212-GD-010 (UniProt P39905); experiment: t-PLA, buffer; GDNF 1.00E-14 M
[6] = target: glial cell line derived neurotrophic factor (GDNF), R&D Systems 212-GD-010 (UniProt P39905); experiment: BLI (Octet RED), antibody on protein G sensors, 1:1 global fit
[7] = target: glial cell line derived neurotrophic factor (GDNF), R&D Systems 212-GD-010 (UniProt P39905); experiment: SPR, value from the software's off-rate, beyond the sensitivity range of the instrument
[8] = target: glial cell line derived neurotrophic factor (GDNF), R&D Systems 212-GD-010 (UniProt P39905); experiment: SPR, off-rate given by the software, beyond the sensitivity range of the instrument
[9] = target: glial cell line derived neurotrophic factor (GDNF), R&D Systems 212-GD-010 (UniProt P39905); experiment: c-PLA, buffer; GDNF 1.00E-11 M
[10] = target: glial cell line derived neurotrophic factor (GDNF), R&D Systems 212-GD-010 (UniProt P39905); experiment: c-PLA, buffer; GDNF 1.00E-10 M
[11] = target: glial cell line derived neurotrophic factor (GDNF), R&D Systems 212-GD-010 (UniProt P39905); experiment: SPR, isoaffinity graph
[12] = target: glial cell line derived neurotrophic factor (GDNF), R&D Systems 212-GD-010 (UniProt P39905); experiment: c-PLA, buffer; GDNF 1.00E-09 M
[13] = target: glial cell line derived neurotrophic factor (GDNF), R&D Systems 212-GD-010 (UniProt P39905); experiment: t-PLA, buffer; GDNF 1.00E-09 M
[14] = target: glial cell line derived neurotrophic factor (GDNF), R&D Systems 212-GD-010 (UniProt P39905); experiment: t-PLA, buffer; GDNF 1.00E-12 M
[15] = target: glial cell line derived neurotrophic factor (GDNF), R&D Systems 212-GD-010 (UniProt P39905); experiment: c-PLA, buffer; GDNF 1.00E-13 M
[16] = target: glial cell line derived neurotrophic factor (GDNF), R&D Systems 212-GD-010 (UniProt P39905); experiment: t-PLA, buffer; GDNF 1.00E-11 M
[17] = target: glial cell line derived neurotrophic factor (GDNF), R&D Systems 212-GD-010 (UniProt P39905); experiment: c-PLA, buffer; GDNF 1.00E-08 M
[18] = target: glial cell line derived neurotrophic factor (GDNF), R&D Systems 212-GD-010 (UniProt P39905); experiment: SPR (Biacore T200), 1:1 global fit
[19] = target: glial cell line derived neurotrophic factor (GDNF), R&D Systems 212-GD-010 (UniProt P39905); experiment: t-PLA, buffer; GDNF 1.00E-13 M
[20] = target: glial cell line derived neurotrophic factor (GDNF), R&D Systems 212-GD-010 (UniProt P39905); experiment: t-PLA, buffer; GDNF 1.00E-08 M
[21] = target: interleukin 6 (IL-6), R&D Systems 206-IL-010 (UniProt P05231); experiment: SPR (Biacore T200), biotinylated antibody on CAP chip, 1:1 fit
Sequence of UniProt P05231 (P05231 30-212 limits assumed): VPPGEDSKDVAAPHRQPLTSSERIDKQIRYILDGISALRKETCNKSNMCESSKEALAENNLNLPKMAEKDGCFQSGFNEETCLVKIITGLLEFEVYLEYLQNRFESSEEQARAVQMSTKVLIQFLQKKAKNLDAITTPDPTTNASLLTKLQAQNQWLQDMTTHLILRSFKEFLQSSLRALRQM

[22] = target: interleukin 6 (IL-6), R&D Systems 206-IL-010 (UniProt P05231); experiment: BLI (Octet RED), antibody on protein G sensors, 1:1 global fit
[23] = target: interleukin 6 (IL-6), R&D Systems 206-IL-010 (UniProt P05231); experiment: t-PLA, buffer; IL-6 1.00E-11 M
[24] = target: interleukin 6 (IL-6), R&D Systems 206-IL-010 (UniProt P05231); experiment: c-PLA, buffer; IL-6 1.00E-08 M
[25] = target: interleukin 6 (IL-6), R&D Systems 206-IL-010 (UniProt P05231); experiment: SPR, value from the software's off-rate, beyond the sensitivity range of the instrument
[26] = target: interleukin 6 (IL-6), R&D Systems 206-IL-010 (UniProt P05231); experiment: SPR, off-rate given by the software, beyond the sensitivity range of the instrument
[27] = target: interleukin 6 (IL-6), R&D Systems 206-IL-010 (UniProt P05231); experiment: t-PLA, buffer; IL-6 1.00E-13 M
[28] = target: interleukin 6 (IL-6), R&D Systems 206-IL-010 (UniProt P05231); experiment: t-PLA, buffer; IL-6 1.00E-08 M
[29] = target: interleukin 6 (IL-6), R&D Systems 206-IL-010 (UniProt P05231); experiment: t-PLA, buffer; IL-6 1.00E-14 M
[30] = target: interleukin 6 (IL-6), R&D Systems 206-IL-010 (UniProt P05231); experiment: SPR, isoaffinity graph
[31] = target: interleukin 6 (IL-6), R&D Systems 206-IL-010 (UniProt P05231); experiment: c-PLA, buffer; IL-6 1.00E-09 M
[32] = target: interleukin 6 (IL-6), R&D Systems 206-IL-010 (UniProt P05231); experiment: c-PLA, buffer; IL-6 1.00E-13 M
[33] = target: interleukin 6 (IL-6), R&D Systems 206-IL-010 (UniProt P05231); experiment: c-PLA, buffer; IL-6 1.00E-12 M
[34] = target: interleukin 6 (IL-6), R&D Systems 206-IL-010 (UniProt P05231); experiment: c-PLA, buffer; IL-6 1.00E-14 M
[35] = target: interleukin 6 (IL-6), R&D Systems 206-IL-010 (UniProt P05231); experiment: t-PLA, buffer; IL-6 1.00E-09 M
[36] = target: interleukin 6 (IL-6), R&D Systems 206-IL-010 (UniProt P05231); experiment: c-PLA, buffer; IL-6 1.00E-10 M
[37] = target: interleukin 6 (IL-6), R&D Systems 206-IL-010 (UniProt P05231); experiment: t-PLA, buffer; IL-6 1.00E-12 M
[38] = target: interleukin 6 (IL-6), R&D Systems 206-IL-010 (UniProt P05231); experiment: SPR (Biacore T200), 1:1 global fit
[39] = target: interleukin 6 (IL-6), R&D Systems 206-IL-010 (UniProt P05231); experiment: c-PLA, buffer; IL-6 1.00E-11 M
[40] = target: interleukin 6 (IL-6), R&D Systems 206-IL-010 (UniProt P05231); experiment: t-PLA, buffer; IL-6 1.00E-10 M

Sequence of UniProt P39905 (P39905 78-211 limits assumed): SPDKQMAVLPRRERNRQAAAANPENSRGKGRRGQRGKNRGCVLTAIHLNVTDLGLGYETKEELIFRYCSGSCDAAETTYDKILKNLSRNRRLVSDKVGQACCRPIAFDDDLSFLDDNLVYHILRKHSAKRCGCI

Question: With “affinity-purified polyclonal anti-GDNF antibody (R&D Systems AF-212-NA)” as the substance, how does the Counts [1] read?
Answer: 17

Question: What about the SBR [1] of the same substance?
Answer: 1.1

Question: What about the Kd [2] of the same substance?
Answer: < 0.71 pM

Question: And the koff [2]?
Answer: < 1e-05 s⁻¹

Question: What about the kon [2] of the same substance?
Answer: 1.4e+07 M⁻¹ s⁻¹

Question: What about the Counts [3] of the same substance?
Answer: 283

Question: What about the SBR [3] of the same substance?
Answer: 19

Question: And the Counts [4]?
Answer: 6.04e+08

Question: What about the SBR [4] of the same substance?
Answer: 896

Question: And the Counts [5]?
Answer: 1.92e+06

Question: What about the SBR [5] of the same substance?
Answer: 2.8

Question: What about the Kd [6] of the same substance?
Answer: < 2.54 pM

Question: What about the koff [6] of the same substance?
Answer: < 1e-06 s⁻¹

Question: What about the kon [6] of the same substance?
Answer: 393000 M⁻¹ s⁻¹

Question: And the Kd [7]?
Answer: 0.173 pM

Question: What about the koff [8] of the same substance?
Answer: 2.34e-06 s⁻¹

Question: And the Counts [9]?
Answer: 3340

Question: And the SBR [9]?
Answer: 221

Question: What about the Counts [10] of the same substance?
Answer: 59400

Question: What about the SBR [10] of the same substance?
Answer: 3930

Question: What about the Kd [11] of the same substance?
Answer: < 5 pM

Question: What about the Counts [12] of the same substance?
Answer: 427000

Question: And the SBR [12]?
Answer: 28300

Question: And the Counts [13]?
Answer: 2.24e+09

Question: What about the SBR [13] of the same substance?
Answer: 3320

Question: What about the Counts [14] of the same substance?
Answer: 6.17e+06

Question: What about the SBR [14] of the same substance?
Answer: 9.1

Question: What about the Counts [15] of the same substance?
Answer: 172

Question: And the SBR [15]?
Answer: 11

Question: What about the Counts [16] of the same substance?
Answer: 6.06e+07

Question: And the SBR [16]?
Answer: 90

Question: What about the Counts [17] of the same substance?
Answer: 214000

Question: What about the SBR [17] of the same substance?
Answer: 14200

Question: What about the Kd [18] of the same substance?
Answer: < 0.71 pM

Question: What about the koff [18] of the same substance?
Answer: < 1e-05 s⁻¹

Question: And the kon [18]?
Answer: 1.35e+07 M⁻¹ s⁻¹

Question: And the Counts [19]?
Answer: 7.19e+06

Question: What about the SBR [19] of the same substance?
Answer: 11

Question: And the Counts [20]?
Answer: 1.02e+09

Question: What about the SBR [20] of the same substance?
Answer: 1520

Question: Which Kd [21] does the source give for “affinity-purified polyclonal anti-IL-6 antibody (R&D Systems AF-206-NA)” here?
Answer: < 4.3 pM

Question: And the koff [21]?
Answer: < 1e-05 s⁻¹

Question: What about the kon [21] of the same substance?
Answer: 2.3e+06 M⁻¹ s⁻¹

Question: And the Kd [22]?
Answer: < 2.49 pM

Question: What about the koff [22] of the same substance?
Answer: < 1e-06 s⁻¹

Question: What about the kon [22] of the same substance?
Answer: 402000 M⁻¹ s⁻¹

Question: What about the Counts [23] of the same substance?
Answer: 3.72e+07

Question: And the SBR [23]?
Answer: 26

Question: What about the Counts [24] of the same substance?
Answer: 137000

Question: What about the SBR [24] of the same substance?
Answer: 7540

Question: And the Kd [25]?
Answer: 0.199 pM

Question: What about the koff [26] of the same substance?
Answer: 4.65e-07 s⁻¹

Question: What about the Counts [27] of the same substance?
Answer: 2.68e+06

Question: And the SBR [27]?
Answer: 1.8

Question: What about the Counts [28] of the same substance?
Answer: 2.05e+09

Question: And the SBR [28]?
Answer: 1410

Question: What about the Counts [29] of the same substance?
Answer: 3.03e+06

Question: What about the SBR [29] of the same substance?
Answer: 2.1

Question: What about the Kd [30] of the same substance?
Answer: < 5 pM

Question: What about the Counts [31] of the same substance?
Answer: 312000

Question: And the SBR [31]?
Answer: 17200

Question: What about the Counts [32] of the same substance?
Answer: 84.3

Question: What about the SBR [32] of the same substance?
Answer: 4.6

Question: What about the Counts [33] of the same substance?
Answer: 141

Question: And the SBR [33]?
Answer: 7.8

Question: And the Counts [34]?
Answer: 55.2

Question: What about the SBR [34] of the same substance?
Answer: 3

Question: What about the Counts [35] of the same substance?
Answer: 3.87e+09

Question: And the SBR [35]?
Answer: 2670

Question: And the Counts [36]?
Answer: 30800

Question: What about the SBR [36] of the same substance?
Answer: 1700

Question: And the Counts [37]?
Answer: 1.16e+07

Question: What about the SBR [37] of the same substance?
Answer: 8

Question: And the Kd [38]?
Answer: < 4.3 pM

Question: And the koff [38]?
Answer: < 1e-05 s⁻¹

Question: And the kon [38]?
Answer: 2.33e+06 M⁻¹ s⁻¹

Question: And the Counts [39]?
Answer: 1980

Question: And the SBR [39]?
Answer: 109

Question: And the Counts [40]?
Answer: 3.88e+08

Question: What about the SBR [40] of the same substance?
Answer: 267

Source: patent publication US20190360025A1
